Measured values taken from paper PMC10350107, “Mechanism of DNA unwinding by hexameric MCM8–9 in complex with HROB” (Research Square, 2023).

B1: HROB-L405D (natural protein, human, UniProt Q8N3J3-4 1-646, looked up)
chain: MACSLQKLFAVEEEFEDEDFLSAVEDAENRFTGSLPVNAGRLRPVSSRPQETVQAQSSRLLLLHPTAPSEALGLPDLDLCLPASSTPSADSRPSCIGAAPLRPVSTSSSWIGNQRRVTVTEVLREPARPQSSALHPLLTFESQQQQVGGFEGPEQDEFDKVLASMELEEPGMELECGVSSEAIPILPAQQREGSVLAKKARVVDLSGSCQKGPVPAIHKAGIMSAQDESLDPVIQCRTPRPPLRPGAVGHLPVPTALTVPTQQLHWEVCPQRSPVQALQPLQAARGTIQSSPQNRFPCQPFQSPSSWLSGKAHLPRPRTPNSSCSTPSRTSSGLFPRIPLQPQAPVSSIGSPVGTPKGPQGALQTPIVTNHLVQLVTAASRTPQQPTHPSTRAKTRRFPGPAGIDPHQQSGRSLEDIMVSAPQTPTHGALAKFQTEIVASSQASVEEDFGRGPWLTMKSTLGLDERDPSCFLCTYSIVMVLRKAALKQLPRNKVPNMAVMIKSLTRSTMDASVVFKDPTGEMQGTVHRLLLETCQNELKPGSVLLLKQIGVFSPSLRNHYLNVTPNNLVHIYSPDSGDGSFLKPSQPFPKDSGSFQHDVAAKPEEGFRTAQNLEAEASPEEELPEADDLDGLLSELPEDFFCGTSS
notes: human HROB as in m1 (closest to isoform 4, lacks Q-484, T126P) with L405D in the disordered region that contacts MCM8
B2: human MCM8–9 complex, wild type (FLAG-MCM8 with MBP-MCM9, co-expressed) (complex)
chain 1: MNGEYRGRGFGRGRFQSWKRGRGGGNFSGKWREREHRPDLSKTTGKRTSEQTPQFLLSTKTPQSMQSTLDRFIPYKGWKLYFSEVYSDSSPLIEKIQAFEKFFTRHIDLYDKDEIERKGSILVDFKELTEGGEVTNLIPDIATELRDAPEKTLACMGLAIHQVLTKDLERHAAELQAQEGLSNDGETMVNVPHIHARVYNYEPLTQLKNVRANYYGKYIALRGTVVRVSNIKPLCTKMAFLCAACGEIQSFPLPDGKYSLPTKCPVPVCRGRSFTALRSSPLTVTMDWQSIKIQELMSDDQREAGRIPRTIECELVHDLVDSCVPGDTVTITGIVKVSNAEEGSRNKNDKCMFLLYIEANSISNSKGQKTKSSEDGCKHGMLMEFSLKDLYAIQEIQAEENLFKLIVNSLCPVIFGHELVKAGLALALFGGSQKYADDKNRIPIRGDPHILVVGDPGLGKSQMLQAACNVAPRGVYVCGNTTTTSGLTVTLSKDSSSGDFALEAGALVLGDQGICGIDEFDKMGNQHQALLEAMEQQSISLAKAGVVCSLPARTSIIAAANPVGGHYNKAKTVSENLKMGSALLSRFDLVFILLDTPNEHHDHLLSEHVIAIRAGKQRTISSATVARMNSQDSNTSVLEVVSEKPLSERLKVVPGETIDPIPHQLLRKYIGYARQYVYPRLSTEAARVLQDFYLELRKQSQRLNSSPITTRQLESLIRLTEARARLELREEATKEDAEDIVEIMKYSMLGTYSDEFGNLDFERSQHGSGMSNRSTAKRFISALNNVAERTYNNIFQFHQLRQIAKELNIQVADFENFIGSLNDQGYLLKKGPKVYQLQTM
chain 2: not shown
notes: human MCM8; human MCM9; Written as the heterodimer (theoretical 266 kDa with tags; hexamer 798 kDa); in solution a mix of dimers, tetramers and hexamers; also called MCM8-MCM9; FLAG-MCM8-MBP-MCM9 heterodimer complex; source: Sf9 insect cells, co-expressed; hexamer-rich pool with a Superose 6 step) or captured from lysate on amylose resin and washed; not shown: FLAG, N-terminal, kept; MBP, …

Legend:
[1] = target: B2; assay: pull-down; MBP-MCM9/FLAG-MCM8 from Sf9 lysate immobilised on amylose resin and washed (300 mM NaCl, 0.1% NP40); incubated with 1 μg purified HROB wild type or mutant in 50 mM Tris-HCl pH 7.5, 100 mM NaCl, 3 mM EDTA, BSA, 1 h at 4 °C; maltose elution, western blot; details: both partners purified
[2] = target: the molecule itself; assay: negative staining transmission electron microscopy; human MCM8–9 at 220 nM; ring-like particles, heterodimers to hexameric rings

binding result [1]	Binder	binding result [2]
binds	B1	–
–	B2	binds
